Residue numbers refer to the chain shown, from its start. Names and notes keep the numbering of the source.
T1: WNV E-protein domain III (dIII) (West Nile Virus, UniProt Q9Q6P4 580-705)
T1 construct: domain: Domain III; also called the antigen; the receptor
T1 sequence (looked up): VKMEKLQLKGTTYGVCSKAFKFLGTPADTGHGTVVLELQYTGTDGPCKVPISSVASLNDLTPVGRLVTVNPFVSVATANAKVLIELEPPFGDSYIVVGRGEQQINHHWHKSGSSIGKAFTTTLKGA

B1: Humanized E16 huE16-3.1 (huE16HC T71A / huE16LC) (antibody, V domains shown)
VH: QVQLVQSGAEVKKPGASVKVSCKASGYTFTDYWIEWVRQAPGQGLEWMGDILCGTGRTRYNEKLKARVTMTADTSTSTAYMELRSLRSDDTAVYYCARSASYGDYADYWGQGTTVTVSS
VL: DIVMTQSPDSLAVSLGERATINCKASQDVSTAVAWYQQKPGQPPKLLIYWASTRHTGVPDRFSGSGSGTDFTLTISSLQAEDVAVYYCQQHYTTPLTFGQGTKLEIK
notes: also called huE16-3 (T71A)/huE16LC; huE16HC-2 T71A/huE16LC
B2: Humanized E16 huE16-2.1 (huE16HC-2 V67A, M69F, T71A / huE16LC) (antibody, V domains shown)
VH: B1 VH with V68A, M70F
VL: B1 VL
B3: Humanized E16 huE16-3.2 (huE16HC T71A / huE16LC-2 Y49S) (antibody, V domains shown)
VH: B1 VH
VL: B1 VL with Y49S
notes: also called hE16-3.2; huE16-2 (T71A)/huE16LC-2 (Y49S)
B4: Humanized E16 huE16-2.2 (huE16HC-2 V67A, M69F, T71A / huE16LC-2 Y49S) (antibody, V domains shown)
VH: B1 VH with V68A, M70F
VL: B1 VL with Y49S

Target: T1, WNV E-protein domain III (dIII)
Assay: antigen capture ELISA (sheet title: E9 captured E protein DIII), 2.5 ng/well domain III captured by mouse antibody E9, HRP anti-human IgG F(ab')2 detection
Protocol: Protocol for antibody-capture ELISA assay: 2.5 ng/well of dIII was captured on 96-well Maxisorp plates by mouse anti-WNV E-protein antibody E9 at room temperature for 2 hours. A serial of two-fold dilution of conditioned medium of chE16, huE16, huE16HC/ch2B6LC or chE16HC/huE16LC starting from 5 ng/well was added to each well. The plate was incubated at room temperature for 1 hour, then binding was detected by HRP conjugated F(ab′)₂ goat anti human IgG F(ab)′₂ specific secondary antibody (Jackson ImmunoResearch, Inc.) at 1:10,000 dilution. After incubation with the secondary antibody for approximately 45 minutes, the plate was developed using a TMB substrate. After 5 minutes incubation, the reaction was stopped by 1% H₂SO₄. The OD₄₅₀ nm was read by SOFTmax program. Between each step, the plates were washed 3 times with PBS/0.1% Tween20. Plates were blocked by 0.5% BSA in PBS/0.1% Tween 20 for 30 mins at room temperature before adding conditioned medium.
After three days in culture the amount of human IgG expressed was quantitated by ELISA. Binding to WNV E-protein domain III (dIII) was determined by ELISA and antibody-capture ELISA assays as described above.

Row | Binder | EC50 (read off the curve) [mg/L]
1 | B1 | ~0.01
2 | B2 | ~0.01
3 | B3 | ~0.01
4 | B4 | ~0.01
